The values that follow come from PMC4003280, “Structural basis for the Nanos-mediated recruitment of the CCR4–NOT complex and translational repression” (Genes & Development, 2014).

Experiment [1] deals with T1, MBP-CNOT1 SHD (human, UniProt A5YKK6 1833-2361).
T1 construct: also called isolated CNOT1 SHD; NOT1 superfamily homology domain; source: E. coli BL21 (DE3) Star, purified (amylose resin, HiTrapQ, Superdex 200); not shown: MBP, N-terminal, kept
Put plainly: pull-down; GST pull-down in vitro with recombinant proteins expressed in E. coli; GST-NIM as bait. Conditions: both partners purified.

Experiment [2] has as its target T2, CNOT1 SHD (residues 1833–2361), MBP tag removed (human, UniProt A5YKK6 1833-2361).
T2 construct: source: E. coli BL21 (DE3) Star, purified (amylose resin, HiTrapQ, HRV3C digestion, size exclusion chromatography); not shown: MBP, N-terminal, cleaved
The experiment in a line: crystal structure; CNOT1 SHD with synthetic Nanos1 NIM peptide; vapor diffusion at 22°C, 0.7-0.8 M succinic acid pH 7.0; refined at 2.8 Å. Conditions: both partners purified.

T1 sequence (A5YKK6 1833-2361): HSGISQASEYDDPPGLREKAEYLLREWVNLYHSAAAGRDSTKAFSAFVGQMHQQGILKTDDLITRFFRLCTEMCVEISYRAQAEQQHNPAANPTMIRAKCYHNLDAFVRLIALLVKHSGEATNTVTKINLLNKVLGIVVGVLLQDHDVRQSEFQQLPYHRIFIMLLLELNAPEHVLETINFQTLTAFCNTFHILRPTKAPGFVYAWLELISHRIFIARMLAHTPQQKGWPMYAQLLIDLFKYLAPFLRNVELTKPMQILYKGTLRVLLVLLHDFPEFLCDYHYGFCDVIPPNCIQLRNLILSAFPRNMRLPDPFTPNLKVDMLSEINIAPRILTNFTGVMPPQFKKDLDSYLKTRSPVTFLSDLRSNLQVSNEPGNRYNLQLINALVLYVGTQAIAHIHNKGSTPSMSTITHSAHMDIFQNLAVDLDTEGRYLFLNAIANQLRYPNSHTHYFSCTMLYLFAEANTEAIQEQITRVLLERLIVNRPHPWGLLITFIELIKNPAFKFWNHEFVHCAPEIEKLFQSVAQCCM
T2 sequence (A5YKK6 1833-2361): as above

B1: GST-Nanos3 NIM (domain or fragment, human, UniProt P60323 4-20, looked up)
chain: FDLWTDYLGLAHLVRAL
notes: Nanos3, human, NIM, residues 4-20; also called conserved motif of Nanos3 fused to glutathione S-transferase; GST-tagged Nanos3 NIM; source: E. coli BL21 (DE3) Star, purified (described in the Supplemental Material)
For B1, in experiment [1], the binding result is listed as “binds”.

B2: GST-Nanos1 NIM (domain or fragment, human, UniProt Q8WY41 40-56, looked up)
chain: FSSWNDYLGLATLITKA
notes: Nanos1, human, NIM, residues 40-56; also called conserved motif of Nanos1 fused to glutathione S-transferase; GST-tagged Nanos1 NIM; source: E. coli BL21 (DE3) Star, purified (described in the Supplemental Material)
On to B2, for which the binding result in experiment [1] is “binds”.

B3: Nanos1 NIM peptide (residues 40–56) (peptide, UniProt Q8WY41 40-56, looked up)
peptide: FSSWNDYLGLATLITKA
notes: Nanos1, H. sapiens, NIM, residues 40–56; also called NIM peptide of Nanos1; Nanos1 peptide; source: synthetic peptide (EMC Microcollections)
Turning to B3, the binding result in experiment [2] is “binds”.

B4: GST-Nanos2 NIM (domain or fragment, human, UniProt P60321 6-22, looked up)
chain: FDMWKDYFNLSQVVWAL
notes: Nanos2, human, NIM, residues 6-22; also called conserved motif of Nanos2 fused to glutathione S-transferase; GST-tagged Nanos2 NIM; source: E. coli BL21 (DE3) Star, purified (described in the Supplemental Material)
B4: the binding result in experiment [1] was “binds”.
